Data as given in doi:10.1101/2022.06.09.495492.

Target: α-actin, endogenous (T. vaginalis) (T. vaginalis (endogenous in TH17 trophozoites))
Experiment: co-sedimentation

“TvFACPα (F-actin capping protein subunit α homolog), endogenous (natural protein)” gave a percent co-sedimented with F-actin (F-actin fraction) of 25%.
